Results reported in patent publication US20180291110A1 (Hoffmann-La Roche, published 2018).
Residue numbers refer to the chain shown, from its start. One block for each binder: values may come before it.

Biological target: T1, human transferrin receptor (recombinant, for surface plasmon resonance) (human, UniProt P02786 89-760)
T1 construct: also called huTfR; human transferrin receptor-biotinylated
Assay: SPR 25C

T1 sequence (P02786 89-760 limits assumed): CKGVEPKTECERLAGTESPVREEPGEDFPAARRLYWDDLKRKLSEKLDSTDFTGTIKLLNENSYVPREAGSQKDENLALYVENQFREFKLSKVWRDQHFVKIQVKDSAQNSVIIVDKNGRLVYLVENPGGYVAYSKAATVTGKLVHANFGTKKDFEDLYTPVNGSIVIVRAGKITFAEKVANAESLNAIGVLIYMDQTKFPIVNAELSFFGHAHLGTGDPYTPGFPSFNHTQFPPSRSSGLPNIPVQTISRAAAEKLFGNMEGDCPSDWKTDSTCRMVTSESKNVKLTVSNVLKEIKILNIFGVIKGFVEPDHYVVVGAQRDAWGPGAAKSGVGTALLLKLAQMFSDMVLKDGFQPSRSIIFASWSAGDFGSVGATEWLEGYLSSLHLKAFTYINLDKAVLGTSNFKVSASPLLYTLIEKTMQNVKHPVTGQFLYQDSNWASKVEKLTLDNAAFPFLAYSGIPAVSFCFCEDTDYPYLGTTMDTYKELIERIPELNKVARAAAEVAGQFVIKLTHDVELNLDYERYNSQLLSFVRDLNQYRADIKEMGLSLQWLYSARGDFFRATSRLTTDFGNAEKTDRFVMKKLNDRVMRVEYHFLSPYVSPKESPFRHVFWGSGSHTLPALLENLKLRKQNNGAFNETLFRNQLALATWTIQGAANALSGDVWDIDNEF

koff: 0.00138 s⁻¹
B1: 2/99 VH21/VL2 (antibody, V domains shown)
VH: QSMQESGPGLVKPSQTLSLTCTVSGFSLSSYAMSWIRQHPGKGLEWIGYIWSGGSTDYASWAKSRVTISVDTSKNQVSLKLSSVTAADTAVYYCARRYGTSYPDYGDANGFDPWGQGTLVTVSS
VL: DIQMTQSPSSLSASVGDRVTITCRASQSISSYLNWYQQKPGKAPKLLIYRASTLASGVPSRFSGSGSGTDFTLTISSLQPEDFATYYCQQSYSSSNVDNTFGGGTKVEIK

koff: 0.000843 s⁻¹
B2: 2/99 VH17/VL3 (antibody, V domains shown)
VH: QQLQESGPGLVKPSETLSLTCTVSGFSLSSYAMSWVRQPPGKGLEWIGYIWSGGSTDYNPSLKSRVTISKDTSKNQVSLKLSSVTAADTAVYYCARRYGTSYPDYGDANGFDPWGPGTLVTVSS
VL: B1 VL with D1A, I2Y

koff: 0.000783 s⁻¹
B3: 2/99 VH23-DANG/VL3 (antibody, V domains shown)
VH: QSMQESGPGLVKPSQTLSLTCTVSGFSLSSYAMSWIRQHPGKGLEWIGYIWSGGSTDYASWAKSRVTISKTSTTVSLKLSSVTAADTAVYYCARRYGTSYPDYGDANGFDPWGQGTLVTVSS
VL: B1 VL with D1A, I2Y

koff: 0.00125 s⁻¹
B4: 2/99 VH7/VL4 (antibody, V domains shown)
VH: QQLVETGGGLIQPGGSLRLSCAASGFSLSSYAMSWVRQAPGKGLEWIGYIWSGGSTDYASWAKGRFTISRDNSKNTLYLQMNSLRAEDTAVYYCARRYGTSYPDYGDANGFDPWGQGTLVTVSS
VL: B1 VL with D1A, I2Y, N34S

koff: 0.00126 s⁻¹
B5: 2/99 VH22/VL2 (antibody, V domains shown)
VH: B1 VH with I36V
VL: B1 VL

koff: 0.00187 s⁻¹
B6: 2/99 VH6/VL4 (antibody, V domains shown)
VH: B4 VH with S60D, W61S, A62V
VL: B1 VL with D1A, I2Y, N34S

koff: 0.00388 s⁻¹
B7: 2/99 VH11/VL4 (antibody, V domains shown)
VH: B4 VH with V4L, T6S, I11V, I47V, S60D, W61S, A62V
VL: B1 VL with D1A, I2Y, N34S

koff: 0.0027 s⁻¹
B8: 2/99 VH9/VL4 (antibody, V domains shown)
VH: B4 VH with V4L, T6S, I11V, S27T, L28F, I47V, S60D, W61S, A62V, R96K
VL: B1 VL with D1A, I2Y, N34S

koff: 0.00316 s⁻¹
B9: 2/99 VH5/VL3 (antibody, V domains shown)
VH: B4 VH with Q2S, L3M, V4E, I47V, S60D, W61S, A62V, Q116P
VL: B1 VL with D1A, I2Y

koff: 0.00565 s⁻¹
B10: 2/99 VH11/VL3 (antibody, V domains shown)
VH: B4 VH with V4L, T6S, I11V, I47V, S60D, W61S, A62V
VL: B1 VL with D1A, I2Y

koff: 0.00256 s⁻¹
B11: 2/99 VH1/VL4 (antibody, V domains shown)
VH: B4 VH with Q1V, I47V, S60D, W61S, A62V
VL: B1 VL with D1A, I2Y, N34S

koff: 0.00127 s⁻¹
B12: 2/99 VH16/VL4 (antibody, V domains shown)
VH: B2 VH with K70V
VL: B1 VL with D1A, I2Y, N34S

koff: 0.00417 s⁻¹
B13: 2/99 VH9/VL3 (antibody, V domains shown)
VH: B4 VH with V4L, T6S, I11V, S27T, L28F, I47V, S60D, W61S, A62V, R96K
VL: B1 VL with D1A, I2Y

koff: 0.00431 s⁻¹
B14: 2/99 VH1/VL3 (antibody, V domains shown)
VH: B4 VH with Q1V, I47V, S60D, W61S, A62V
VL: B1 VL with D1A, I2Y

koff: 0.000788 s⁻¹
B15: 2/99 VH8/VL4 (antibody, V domains shown)
VH: QQLVETGGGLIQPGGSLRLSCAASGFSLSSYAMSWVRQAPGKGLEWIGYIWSGGSTDYASWAKGRFTISKTSTTLYLQMNSLRAEDTAVYYCARRYGTSYPDYGDANGFDPWGQGTLVTVSS
VL: B1 VL with D1A, I2Y, N34S

koff: 0.00145 s⁻¹
B16: 2/99 VH7/VL3 (antibody, V domains shown)
VH: B4 VH
VL: B1 VL with D1A, I2Y

koff: 0.00173 s⁻¹
B17: 2/99 VH16/VL3 (antibody, V domains shown)
VH: B2 VH with K70V
VL: B1 VL with D1A, I2Y

koff: 0.0013 s⁻¹
B18: 2/99 VH13/VL4 (antibody, V domains shown)
VH: QVQLQESGPGLVKPSETLSLTCTVSGFSLSSYAMSWIRQPPGKGLEWIGYIWSGGSTDYNPSLKSRVTISVDTSKNQVSLKLSSVTAADTAVYYCARRYGTSYPDYGDANGFDPWGQGTLVTVSS
VL: B1 VL with D1A, I2Y, N34S

koff: 0.00282 s⁻¹
B19: 2/99 VH6/VL3 (antibody, V domains shown)
VH: B4 VH with S60D, W61S, A62V
VL: B1 VL with D1A, I2Y

koff: 0.00384 s⁻¹
B20: 2/99 VH2/VL3 (antibody, V domains shown)
VH: EVQLVETGGGLIQPGGSLRLSCAASGFSLSSYAMSWVRQAPGKGLEWVGYIWSGGSTDYADSVKGRFTISRDNSKNTLYLQMNSLRAEDTAVYYCARRYGTSYPDYGDANGFDPWGQGTLVTVSS
VL: B1 VL with D1A, I2Y

koff: 0.000723 s⁻¹
B21: 2/99 VH17/VL4 (antibody, V domains shown)
VH: B2 VH
VL: B1 VL with D1A, I2Y, N34S

koff: 0.001 s⁻¹
B22: 2/99 VH19/VL3 (antibody, V domains shown)
VH: B1 VH with S60P, W61S, A62L, V77F
VL: B1 VL with D1A, I2Y

koff: 0.00715 s⁻¹
B23: 2/99 VH20/VL3 (antibody, V domains shown)
VH: B1 VH with S60P, W61S, A62L
VL: B1 VL with D1A, I2Y

koff: 0.00134 s⁻¹
B24: 2/99 VH15/VL4 (antibody, V domains shown)
VH: B2 VH with K70V, P116Q
VL: B1 VL with D1A, I2Y, N34S

koff: 0.00311 s⁻¹
B25: 2/99 VH12/VL4 (antibody, V domains shown)
VH: B18 VH with V78F
VL: B1 VL with D1A, I2Y, N34S

koff: 0.00586 s⁻¹
B26: 2/99 VH12/VL3 (antibody, V domains shown)
VH: B18 VH with V78F
VL: B1 VL with D1A, I2Y

koff: 0.00335 s⁻¹
B27: 2/99 VH18/VL4 (antibody, V domains shown)
VH: B18 VH with E16Q, P40H, N60A, V78F
VL: B1 VL with D1A, I2Y, N34S

koff: 0.00238 s⁻¹
B28: 2/99 VH5/VL4 (antibody, V domains shown)
VH: B4 VH with Q2S, L3M, V4E, I47V, S60D, W61S, A62V, Q116P
VL: B1 VL with D1A, I2Y, N34S

koff: 0.001 s⁻¹
B29: 2/99 VH8/VL3 (antibody, V domains shown)
VH: B15 VH
VL: B1 VL with D1A, I2Y

koff: 0.00665 s⁻¹
B30: 2/99 VH18/VL3 (antibody, V domains shown)
VH: B18 VH with E16Q, P40H, N60A, V78F
VL: B1 VL with D1A, I2Y

koff: 0.00207 s⁻¹
B31: 2/99 VH15/VL3 (antibody, V domains shown)
VH: B2 VH with K70V, P116Q
VL: B1 VL with D1A, I2Y

koff: 0.00263 s⁻¹
B32: 2/99 VH2/VL4 (antibody, V domains shown)
VH: B20 VH
VL: B1 VL with D1A, I2Y, N34S

koff: 0.00194 s⁻¹
B33: 2/99 VH21/VL3 (antibody, V domains shown)
VH: B1 VH
VL: B1 VL with D1A, I2Y

koff: 0.00277 s⁻¹
B34: 2/99 VH13/VL3 (antibody, V domains shown)
VH: B18 VH
VL: B1 VL with D1A, I2Y

koff: 0.00143 s⁻¹
B35: 2/99 VH22/VL3 (antibody, V domains shown)
VH: B1 VH with I36V
VL: B1 VL with D1A, I2Y
